“And” between values parts separate entries of the source, which are not always exact repeats. Equal values may be shown once.
B1: GRASP65 (natural protein)
chain: not shown
B2: Rab6a GTPase (natural protein, human (endogenous in LNCaP), UniProt P20340 1-208, looked up)
chain: MSTGGDFGNPLRKFKLVFLGEQSVGKTSLITRFMYDSFDNTYQATIGIDFLSKTMYLEDRTVRLQLWDTAGQERFRSLIPSYIRDSTVAVVVYDITNVNSFQQTTKWIDDVRTERGSDVIIMLVGNKTDLADKRQVSIEEGERKAKELNVMFIETSAKAGYNVKQLFRRVAAALPGMESTQDRSREDMIDIKLEKPQEQPVSEGGCSC

Columns and labels:
[1] = target: the molecule itself; assay: Western blot of lysates
[2] = target: the molecule itself; assay: Western blot

| Protein | stoichiometry N [1] | stoichiometry N [2] |
| --- | --- | --- |
| B1 | 2 and 4 |  |
| B2 |  | 2 |

Reference: article doi:10.1101/296517 (bioRxiv, 2018)
